# Test results published in the supplement of paper PMC6757056.
# ± gives the standard deviation of the averaged measurements.
# B1: library; a variant is named by its letters at N, in order (parent)
# chain: GCUGUCACCGGUGCUUGGUACGUUAUAUUCAGCCGGUCUGAUGAGUCUNNNNNNAGACGAAACAGC
# Assays:
# (6R,S)-folinic acid [1] = variants of: B1; experiment: FACS-Seq fitted mean relative fluorescence mCherry/BFP without ligand (log10 relative fluorescence); HEK293T overexpressing SLC46A1; higher = higher reporter protein expression; settings: without (6R,S)-folinic acid; ligand present: no
# Procedure, shortened: (§1)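 With or without ligand for 48 h, enriched HEK293T libraries carrying a lentiviral ribozyme-switch mCherry reporter and EF1α-BFP were sorted into 6 mCherry/BFP bins. Bin genomic DNA was amplified by PCR, barcoded and sequenced on MiSeq. Fluorescence was taken from normal fits to the resulting bin counts. Each fitted mean of log10(mCherry/BFP) was scaled to five spiked-in control ribozymes.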
# (6R,S)-folinic acid [2] = variants of: B1; experiment: normalized RNA/DNA level without ligand (relative to sTRSVctl = 100) (log10 (% of sTRSVctl)); HEK293T overexpressing SLC46A1; higher = less ribozyme self-cleavage, higher mRNA level; settings: without (6R,S)-folinic acid; ligand present: no
# Experimental: (§2)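 Hammerhead (sTRSV) ribozyme switch libraries with a ligand aptamer grafted on stem I and a randomized N4-6 loop II, cloned into the 3' UTR of mCherry and transiently transfected into HEK293T cells; RNA-Seq 72 h post transfection with ligand added 1 h before transfection; RNA read count / plasmid DNA read count normalized to the non-cleaving sTRSVctl (x100), log10; sequences with >100 DNA reads. FACS-Seq: lentiviral library sorted into 6 bins after 48 h ligand, log-normal fit mean of mCherry/BFP scaled to controls. Printed sequences are partial switch sequences.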
# (6R,S)-folinic acid [3] = variants of: B1; experiment: FACS-Seq fitted mean relative fluorescence mCherry/BFP with ligand (log10 relative fluorescence); HEK293T overexpressing SLC46A1; ligand concentration (+) FACS-Seq: 6 mM; higher = higher reporter protein expression; settings: with (6R,S)-folinic acid; ligand present: yes
# Procedure, shortened: as §1
# (6R,S)-folinic acid [4] = variants of: B1; experiment: normalized RNA/DNA level with ligand (relative to sTRSVctl = 100) (log10 (% of sTRSVctl)); HEK293T overexpressing SLC46A1; ligand concentration (+) RNA-Seq: 6 mM; higher = less ribozyme self-cleavage, higher mRNA level; settings: with (6R,S)-folinic acid; ligand present: yes
# Experimental: as §2
Variant,"FACS-Seq fitted mean (log10) ((6R,S)-folinic acid [1])","normalized RNA/DNA level without ligand (log10) ((6R,S)-folinic acid [2])","FACS-Seq fitted mean (log10) ((6R,S)-folinic acid [3])","normalized RNA/DNA level with ligand (log10) ((6R,S)-folinic acid [4])"
CAUCUC,0.717 ± 0.072,2.111 ± 0.017,0.619 ± 0.56,2.08 ± 0.072
UCCACG,0.0965 ± 0.072,1.921 ± 0.0076,0.23 ± 0.091,2.01 ± 0.05
UAUGCG,0.276 ± 0.043,1.7391 ± 0.00075,0.61 ± 0.063,1.961 ± 0.014
UAUGCU,-0.0167 ± 0.051,2.007 ± 0.0048,0.129 ± 0.27,2.04 ± 0.029
UAUUAA,-0.696 ± 0.074,1.946 ± 0.0091,-0.811 ± 0.25,1.98 ± 0.037
UAUUAC,0.106 ± 0.011,1.984 ± 0.0099,0.38 ± 0.24,2 ± 0.035
UAUUAG,-0.162 ± 0.24,1.781 ± 0.0025,0.0465 ± 0.094,1.98 ± 0.054
UAUGUG,0.257 ± 0.25,1.65 ± 0.024,0.638 ± 0.018,1.944 ± 0.019
GCCAAA,0.458 ± 0.071,2.02 ± 0.017,0.495 ± 0.12,2.029 ± 0.0061
AAUGGG,0.225 ± 0.07,1.8 ± 0.022,0.233 ± 0.18,2 ± 0.021
AAUGGU,0.406 ± 0.13,1.9355 ± 0.00018,0.51 ± 0.099,2 ± 0.055
ACAUCA,0.659 ± 0.066,2.055 ± 0.0034,0.448 ± 0.075,2.05 ± 0.035
ACAUCC,0.096 ± 0.15,2.08 ± 0.018,0.0523 ± 0.006,2.03 ± 0.025
CCAGUG,0.445 ± 0.16,2.029 ± 0.0086,0.251 ± 0.16,2.022 ± 0.0066
CCACGU,0.714 ± 0.093,2.053 ± 0.0035,0.4025 ± 0.00094,2.0397 ± 0.0012
ACAGUG,0.32076 ± 2.8e-05,1.732 ± 0.0061,0.629 ± 0.16,2 ± 0.028
GCAGAU,0.24 ± 0.072,1.958 ± 0.011,0.319 ± 0.16,2.02 ± 0.035
UCAUGC,0.558 ± 0.075,2.038 ± 0.01,0.485 ± 0.15,2.04 ± 0.031
UCAGCG,0.14 ± 0.042,1.912 ± 0.0054,0.669 ± 0.098,2.03 ± 0.023
GCACAC,-0.179 ± 0.1,1.966 ± 0.0048,-0.0397 ± 0.2,2 ± 0.037
GCACAA,-0.45 ± 0.18,1.9848 ± 8e-05,-1.15 ± 0.17,2 ± 0.039
AAUCCU,0.552 ± 0.046,2.051 ± 0.0088,0.476 ± 0.068,2.06 ± 0.019
ACAAAC,0.439 ± 0.018,2.03 ± 0.025,0.419 ± 0.038,2.02 ± 0.043
ACAAAG,0.424 ± 0.017,1.929 ± 0.019,0.459 ± 0.23,2.01 ± 0.042

Variant,"FACS-Seq fitted mean (log10) ((6R,S)-folinic acid [1])","normalized RNA/DNA level without ligand (log10) ((6R,S)-folinic acid [2])","FACS-Seq fitted mean (log10) ((6R,S)-folinic acid [3])","normalized RNA/DNA level with ligand (log10) ((6R,S)-folinic acid [4])"
UAUUUC,0.248 ± 0.026,2.029 ± 0.0031,0.208 ± 0.2,2.01 ± 0.054
UAUUUU,0.372 ± 0.078,2.006 ± 0.0046,0.24 ± 0.13,2.02 ± 0.058
UAUUUG,0.00681 ± 0.018,1.82 ± 0.02,0.373 ± 0.0088,1.976 ± 0.017
UCCAGG,0.587 ± 0.23,1.976 ± 0.011,0.559 ± 0.28,2.01 ± 0.056
UCCAGA,-0.0235 ± 0.25,2.01 ± 0.0079,0.123 ± 0.14,2 ± 0.029
GCCAGG,0.43 ± 0.14,1.982 ± 0.0037,0.666 ± 0.18,2.002 ± 0.015
GCCAGC,0.269 ± 0.003,2.0142 ± 0.00072,0.102 ± 0.14,2.02 ± 0.038
GCCAGA,0.385 ± 0.028,2.019 ± 0.017,0.278 ± 0.36,2.03 ± 0.021
GCAUUA,0.539 ± 0.07,1.995 ± 0.011,0.484 ± 0.1,2.03 ± 0.028
ACAUAC,0.125 ± 0.085,1.992 ± 0.0001,0.387 ± 0.078,1.99 ± 0.021
ACAUAA,-0.288 ± 0.045,1.9664 ± 0.00019,-0.603 ± 0.1,1.996 ± 0.019
GAUUUA,0.4 ± 0.091,2.024 ± 0.019,0.664 ± 0.15,2.03 ± 0.021
AAUUUU,0.217 ± 0.14,2.04 ± 0.029,0.309 ± 0.3,2.01 ± 0.025
AAUUUG,0.443 ± 0.039,1.952 ± 0.016,0.374 ± 0.038,2.02 ± 0.024
UAUCGG,0.113 ± 0.039,1.69 ± 0.028,0.6479 ± 0.00075,1.94 ± 0.028
ACCAAA,0.632 ± 0.15,2.018 ± 0.012,0.52 ± 0.14,2.017 ± 0.011
ACAGCG,0.271 ± 0.031,1.82 ± 0.023,0.411 ± 0.034,2.01 ± 0.031
ACAGCA,0.531 ± 0.039,2.015 ± 0.012,0.555 ± 0.17,2.04 ± 0.037
ACAGAU,-0.89 ± 0.044,1.95 ± 0.0032,-0.82 ± 0.13,2.03 ± 0.04
ACAGAA,0.191 ± 0.02,1.947 ± 0.0015,0.0345 ± 0.24,2 ± 0.024
ACAGAC,0.355 ± 0.071,2.0094 ± 0.0017,0.356 ± 0.3,2.021 ± 0.0097
ACAGAG,0.511 ± 0.086,1.6069 ± 0.00022,0.928 ± 0.2,1.94 ± 0.048
CCAGAU,0.213 ± 0.0078,2.003 ± 0.0083,0.000255 ± 0.023,2.01 ± 0.027
ACACAU,0.23 ± 0.019,1.965 ± 0.0028,0.348 ± 0.25,2 ± 0.043

Variant,"FACS-Seq fitted mean (log10) ((6R,S)-folinic acid [1])","normalized RNA/DNA level without ligand (log10) ((6R,S)-folinic acid [2])","FACS-Seq fitted mean (log10) ((6R,S)-folinic acid [3])","normalized RNA/DNA level with ligand (log10) ((6R,S)-folinic acid [4])"
GAUUGU,0.143 ± 0.011,1.995 ± 0.0038,0.365 ± 0.11,2.024 ± 0.0059
GAUUGA,0.422 ± 0.12,1.999 ± 0.019,0.519 ± 0.3,2.02 ± 0.048
CCACAA,0.496 ± 0.0082,1.969 ± 0.0044,0.422 ± 0.22,1.96 ± 0.016
ACAAGG,0.526 ± 0.062,1.913 ± 0.014,0.524 ± 0.13,2.016 ± 0.014
ACAAUA,0.486 ± 0.011,1.981 ± 0.0063,0.509 ± 0.16,2.004 ± 0.02
ACAAUG,0.173 ± 0.021,1.96 ± 0.02,0.372 ± 0.11,2.03 ± 0.033
ACAACA,0.197 ± 0.026,2.032 ± 0.003,0.27 ± 0.24,2.03 ± 0.04
AAUCUU,0.524 ± 0.12,2.002 ± 0.013,0.276 ± 0.024,2.013 ± 0.017
AAUCUA,0.267 ± 0.13,1.99 ± 0.013,0.439 ± 0.27,2.014 ± 0.013
CCCCGA,-0.3459 ± 0.0019,2.028 ± 0.0046,-0.64 ± 0.16,2.02 ± 0.038
UCAGAU,0.523 ± 0.0091,1.95 ± 0.0075,0.201 ± 0.13,2.013 ± 0.011
UCCAAG,0.322 ± 0.11,1.815 ± 0.0067,0.489 ± 0.12,1.992 ± 0.006
GCAUGA,0.25 ± 0.038,2.0186 ± 0.00041,0.168 ± 0.097,2.081 ± 0.01
CAUGAA,-0.00657 ± 0.027,1.954 ± 0.014,-0.0505 ± 0.07,1.98 ± 0.045
ACACCA,0.658 ± 0.22,2.035 ± 0.0068,0.462 ± 0.1,2.03 ± 0.022
ACACCG,0.142 ± 0.015,1.99 ± 0.022,0.198 ± 0.14,2.01 ± 0.022
GAUUCU,0.0461 ± 0.007,2.015 ± 0.0091,-0.0821 ± 0.066,2.04 ± 0.042
GAUUCA,0.437 ± 0.14,1.985 ± 0.0095,0.333 ± 0.013,2.01 ± 0.025
CCAAAA,0.502 ± 0.074,1.971 ± 0.0043,0.496 ± 0.19,1.96 ± 0.022
GAUGCA,0.5601 ± 0.0038,2.009 ± 0.0054,0.5189 ± 0.004,2.04 ± 0.035
GAUGCG,0.444 ± 0.16,1.941 ± 0.011,0.693 ± 0.15,2.02 ± 0.07
UAUCCG,0.17 ± 0.01,1.84 ± 0.017,0.376 ± 0.25,1.993 ± 0.019
CCACUU,0.0563 ± 0.03,1.97 ± 0.021,-0.0467 ± 0.18,1.972 ± 0.007
